Values belong to the binder of their own block, whether it stands above or below them.
How the values were obtained:
[1] = molecular target: NGF; assay: cell-based or functional assay
[2] = molecular target: TNF-alpha; assay: cell-based or functional assay
[3] = molecular target: T1, Recombinant human B7-1/CD80 Fc chimera (Cat. 140-B1-100, R&D Systems) (human, UniProt P33681 35-242); assay: competitive ELISA; coated CD28 Fc, biotinylated B7-1/CD80 Fc (2 nM), construct titrated
T1 construct: extracellular domain; also called B7-1 antigen; Fc part of the bought chimera not given; not described
T1 sequence (looked up): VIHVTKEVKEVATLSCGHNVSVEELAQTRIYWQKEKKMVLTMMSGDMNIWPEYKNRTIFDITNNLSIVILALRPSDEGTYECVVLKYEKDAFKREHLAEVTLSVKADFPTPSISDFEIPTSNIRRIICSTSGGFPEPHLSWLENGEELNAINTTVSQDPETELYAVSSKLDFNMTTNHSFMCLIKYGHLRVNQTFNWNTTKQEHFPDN
Description: (§1) ELISA plates (Nunc, MaxiSorp, Rochester, N.Y.) were incubated overnight at 4° C. with Recombinant Human CD28 Fc Chimera (Cat. #342-CD-200). Plates were washed three times in washing buffer (PBS containing 0.05% Tween 20), and blocked for 1 hour at 25° C. in blocking buffer (PBS containing 1% BSA). Wells were washed three times, and serial dilutions of each antibody or DVD-Ig in PBS containing 0.1% BSA were added to the wells and incubated at 25° C. for 1 hour. The wells were washed three times, and biotinylated antigen (2 nM) was added to the plates and incubated for 1 hour at 25° C. The wells were washed three times and incubated for 1 hour at 25° C. with streptavidin-HRP (KPL #474-3000, Gaithersburg, Md.). The wells were washed three times, and 100 μl of ULTRA-TMB ELISA (Pierce, Rockford, Ill.) was added per well. Following color development the reaction was stopped with 1N HCL and absorbance at 450 nm was measured. Recombinant human B7-1/CD80 Fc chimera (Cat. 140-B1-100, R&D Systems, Minneapolis, Minn.) was used.

[4] = molecular target: T1, Recombinant human B7-1/CD80 Fc chimera …; assay: direct bind ELISA, coated recombinant human B7-1/CD80 Fc chimera
Description: Enzyme Linked Immunosorbent Assays (ELISA) to screen for antibodies that bind a desired target antigen were performed as follows. High bind ELISA plates (Corning Costar #3369, Acton, Mass.) were coated with 100 μL/well of 10 μg/ml of desired target antigen (R&D Systems, Minneapolis, Minn.) or desired target antigen extra-cellular domain/FC fusion protein (R&D Systems, Minneapolis, Minn.) or monoclonal mouse anti-polyHistidine antibody (R&D Systems #MAB050, Minneapolis, Minn.) in phosphate buffered saline (10×PBS, Abbott Bioresearch Center, Media Prep#MPS-073, Worcester, Mass.) overnight at 4° C. Plates were washed four times with PBS containing 0.02% Tween 20. Plates were blocked by the addition of 300 μL/well blocking solution (non-fat dry milk powder, various retail suppliers, diluted to 2% in PBS) for ½ hour at room temperature. Plates were washed four times after blocking with PBS containing 0.02% Tween 20.
One hundred microliters of 10 ng/mL goat anti-human IgG-FC specific HRP conjugated antibody (Southern Biotech #2040-05, Birmingham, Ala.) was added to each well of the desired target antigen plate or anti-polyHistidine antibody/Histidine tagged desired target antigen plate. Alternatively, one hundred microliters of 10 ng/mL goat anti-human IgG-kappa light chain specific HRP conjugated antibody (Southern Biotech #2060-05 Birmingham, Ala.) was added to each well of the desired target antigen/FC fusion plate and incubated for 1 hour at room temperature. Plates were washed 4 times with PBS containing 0.02% Tween 20.
One hundred microliters of enhanced TMB solution (Neogen Corp. #308177, K Blue, Lexington, Ky.) was added to each well and incubated for 10 minutes at room temperature. The reaction was stopped by the addition of 50 μL 1N sulphuric acid. Plates were read spectrophotometrically at a wavelength of 450 nm

[5] = molecular target: T2, Recombinant human B7-2/CD86 Fc chimera (Cat. 141-B2-100, R&D Systems) (human, UniProt P42081 26-245); assay: competitive ELISA; coated CD28 Fc, biotinylated B7-2/CD86 Fc, construct titrated
T2 construct: Fc part of the bought chimera not given; not described
T2 sequence (looked up): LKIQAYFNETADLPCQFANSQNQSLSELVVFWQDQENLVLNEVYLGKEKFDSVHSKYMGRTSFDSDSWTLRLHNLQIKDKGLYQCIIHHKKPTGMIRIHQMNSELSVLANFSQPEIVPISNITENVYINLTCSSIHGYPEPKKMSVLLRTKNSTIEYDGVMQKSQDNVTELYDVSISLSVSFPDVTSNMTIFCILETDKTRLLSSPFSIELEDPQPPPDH
Description: as §1
Recombinant human B7-2/CD86 Fc chimera (Cat. 141-B2-100, R&D Systems, Minneapolis, Minn.) was used.

B1: Anti-NGF (antibody, V domains shown)
VH: QVQLQESGPGLVKPSETLSLTCTVSGFSLIGYDLNWIRQPPGKGLEWIGIIWGDGTTDYNSAVKSRVTISKDTSKNQFSLKLSSVTAADTAVYYCARGGYWYATSYYFDYWGQGTLVTVSS
VL: DIQMTQSPSSLSASVGDRVTITCRASQSISNNLNWYQQKPGKAPKLLIYYTSRFHSGVPSRFSGSGSGTDFTFTISSLQPEDIATYYCQQEHTLPYTFGQGTKLEIKR
C-terminal Bioassay Mean (IC50, nM): Cell Impedance assay [1]: 7.8 nM
C-terminal Bioassay Mean (IC50, nM): pERK assay [1]: 0.6 nM

B3: RAB015 (other)
VH: EVQLVQSGAEVKKPGASVKVSCKASGYTFTKYWLGWVRQAPGQGLEWMGDIYPGYDYTHYNEKFKDRVTLTTDTSTSTAYMELRSLRSDDTAVYYCARSDGSSTYWGQGTLVTVSS
VL: AMHVAQPAVVLASSRGIASFVCEYASPGKYTEVRVTVLRQADSQVTEVCAATYMMGNELTFLDDSICTGTSSGNQVNLTIQGLRAMDTGLYICKVELMYPPPYYEGIGNGTQIYVIDPEPCPDSDTVAAPSVFIFPPDVLMTQTPLSLPVTPGEPASISCTSSQNIVHSNGNTYLEWYLQKPGQSPQLLIYKVSNRFSGVPDRFSGSGSGTDFTLKISRVEAEDVGVYYCFQVSHVPYTFGGGTKVEIKR
notes: rDVD-Ig with LEA29Y on the light chain only and a long linker; also called RAB015H; RAB015L
EC50 [3]: 78.9 nM
EC50 [4]: 34.9 nM

B7: RAB014 (other)
VH: AMHVAQPAVVLASSRGIASFVCEYASPGKYTEVRVTVLRQADSQVTEVCAATYMMGNELTFLDDSICTGTSSGNQVNLTIQGLRAMDTGLYICKVELMYPPPYYEGIGNGTQIYVIDPEPCPDSDASTKGPSVFPLAPEVQLVQSGAEVKKPGASVKVSCKASGYTFTKYWLGWVRQAPGQGLEWMGDIYPGYDYTHYNEKFKDRVTLTTDTSTSTAYMELRSLRSDDTAVYYCARSDGSSTYWGQGTLVTVSS
VL: DVLMTQTPLSLPVTPGEPASISCTSSQNIVHSNGNTYLEWYLQKPGQSPQLLIYKVSNRFSGVPDRFSGSGSGTDFTLKISRVEAEDVGVYYCFQVSHVPYTFGGGTKVEIKR
notes: rDVD-Ig with LEA29Y on the heavy chain only and a long linker; also called RAB014H; RAB014L
EC50 [3]: 1.7 nM
EC50 [4]: 1.5 nM
EC50 [5]: 1.1 nM

B8: RAB020 (other)
VH: AMHVAQPAVVLASSRGIASFVCEYASPGKYTEVRVTVLRQADSQVTEVCAATYMMGNELTFLDDSICTGTSSGNQVNLTIQGLRAMDTGLYICKVELMYPPPYYEGIGNGTQIYVIDPEPCPDSDQEPKSSDKTHTSPEVQLVQSGAEVKKPGASVKVSCKASGYTFTKYWLGWVRQAPGQGLEWMGDIYPGYDYTHYNEKFKDRVTLTTDTSTSTAYMELRSLRSDDTAVYYCARSDGSSTYWGQGTLVTVSS
VL: B7 VL
notes: rDVD-Ig with LEA29Y on the heavy chain only and a QH linker; also called RAB020H; RAB020L
EC50 [3]: 1.7 nM
EC50 [4]: 1.2 nM
EC50 [5]: 1 nM

B9: RAB013 (other)
VH: B7 VH
VL: B3 VL
notes: rDVD-Ig with LEA29Y on both chains and long linkers; also called RAB013H; RAB013L
EC50 [3]: 2 nM
EC50 [4]: 21.2 nM
EC50 [5]: 0.5 nM

Next, values leading:

N-terminal L929 Assay (EC50, pM) [2]: 90 pM
B2: RAB028 (other)
VH: B3 VH
VL: LPAQVAFTPYAPEPGSTCRLREYYDQTAQMCCSKCSPGQHAKVFCTKTSDTVCDSCEDSTYTQLWNWVPECLSCGSRCSSDQVETQACTREQNRICTCRPGWYCALSKQEGCRLCAPLRKCRPGFGVARPGTETSDVVCKPCAPGTFSNTTSSTDICRPHQICNVVAIPGNASMDAVCTSTSPTRSMAPGAVHLPQPVSTRSQHTQPTPEPSTAPSTSFLLPMGPSPPAEGSTGDTVAAPDVLMTQTPLSLPVTPGEPASISCTSSQNIVHSNGNTYLEWYLQKPGQSPQLLIYKVSNRFSGVPDRFSGSGSGTDFTLKISRVEAEDVGVYYCFQVSHVPYTFGGGTKVEIKR

EC50 [3]: 2.4 nM
EC50 [4]: 2.5 nM
EC50 [5]: 0.8 nM
B4: RAB021 (other)
VH: B3 VH
VL: AMHVAQPAVVLASSRGIASFVCEYASPGKYTEVRVTVLRQADSQVTEVCAATYMMGNELTFLDDSICTGTSSGNQVNLTIQGLRAMDTGLYICKVELMYPPPYYEGIGNGTQIYVIDPEPCPDSDQEPKSSDKTHTSPDVLMTQTPLSLPVTPGEPASISCTSSQNIVHSNGNTYLEWYLQKPGQSPQLLIYKVSNRFSGVPDRFSGSGSGTDFTLKISRVEAEDVGVYYCFQVSHVPYTFGGGTKVEIKR
notes: rDVD-Ig with LEA29Y on the light chain only and a QH linker; also called RAB021H; RAB021L

binding result [4]: no binding
B5: RAB019 (other)
VH: B8 VH
VL: B4 VL
notes: rDVD-Ig with LEA29Y on both chains and QH linkers; also called RAB019H; RAB019L

N-terminal L929 Assay (EC50, pM) [2]: 30 pM
B6: RAB027 (other)
VH: LPAQVAFTPYAPEPGSTCRLREYYDQTAQMCCSKCSPGQHAKVFCTKTSDTVCDSCEDSTYTQLWNWVPECLSCGSRCSSDQVETQACTREQNRICTCRPGWYCALSKQEGCRLCAPLRKCRPGFGVARPGTETSDVVCKPCAPGTFSNTTSSTDICRPHQICNVVAIPGNASMDAVCTSTSPTRSMAPGAVHLPQPVSTRSQHTQPTPEPSTAPSTSFLLPMGPSPPAEGSTGDASTKGPEVQLVQSGAEVKKPGASVKVSCKASGYTFTKYWLGWVRQAPGQGLEWMGDIYPGYDYTHYNEKFKDRVTLTTDTSTSTAYMELRSLRSDDTAVYYCARSDGSSTYWGQGTLVTVSS
VL: B7 VL
